Laboratory results as given in paper PMC8117407 (Science (New York, N.Y.), 2020).

Biological target: the molecule itself
Test: dual-colour single-molecule co-tracking

Protein	ligand-independent dimerization relative to ligand-induced dimerization
mXFP-EpoR coexpressed with JAK2 V617F-mEGFP (complex) chain 1: APPPNLPDPKFESKAALLAARGPEELLCFTERLEDLVCFWEEAASAGVGPGNYSFSYQLEDEPWKLCRLHQAPTARGAVRFWCSLPTADTSSFVPLELRVTAASGAPRYHRVIHINEVVLLDAPVGLVARLADESGHVVLRWLPPPETPMTSHIRYEVDVSAGNGAGSVQRVEILEGRTECVLSNLRGRTRYTFAVRARMAEPSFGGFWSAWSEPVSLLTPSDLDPLILTLSLILVVILVLLTVLALLSHRRALKQKIWPGIPSPESEFEGLFTTHKGNFQLWLYQNDGCLWWSPCTPFTEDPPASLEVLSERCWGTMQAVEPGTDDEGPLLEPVGSEHAQDTYLVLDKWLLPRNPPSEDLPGPGGSVDIVAMDEGSEASSCSSALASKPSPEGASAASFEYTILDPSSQLLRPWTLCPELPPTPPHLKYLYLVVSDSGISTDYSSGDSQGAQGGLSDGPYSNPYENSLIPAAEPLPPSYVACS chain 2: MGMACLTMTEMEGTSTSSIYQNGDISGNANSMKQIDPVLQVYLYHSLGKSEADYLTFPSGEYVAEEICIAASKACGITPVYHNMFALMSETERIWYPPNHVFHIDESTRHNVLYRIRFYFPRWYCSGSNRAYRHGISRGAEAPLLDDFVMSYLFAQWRHDFVHGWIKVPVTHETQEECLGMAVLDMMRIAKENDQTPLAIYNSISYKTFLPKCIRAKIQDYHILTRKRIRYRFRRFIQQFSQCKATARNLKLKYLINLETLQSAFYTEKFEVKEPGSGPSGEEIFATIIITGNGGIQWSRGKHKESETLTEQDLQLYCDFPNIIDVSIKQANQEGSNESRVVTIHKQDGKNLEIELSSLREALSFVSLIDGYYRLTADAHHYLCKEVAPPAVLENIQSNCHGPISMDFAISKLKKAGNQTGLYVLRCSPKDFNKYFLTFAVERENVIEYKHCLITKNENEEYNLSGTKKNFSSLKDLLNCYQMETVRSDNIIFQFTKCCPPKPKDKSNLLVFRTNGVSDVPTSPTLQRPTHMNQMVFHKIRNEDLIFNESLGQGTFTKIFKGVRREVGDYGQLHETEVLLKVLDKAHRNYSESFFEAASMMSKLSHKHLVLNYGVCFCGDENILVQEFVKFGSLDTYLKKNKNCINILWKLEVAKQLAWAMHFLEENTLIHGNVCAKNILLIREEDRKTGNPPFIKLSDPGISITVLPKDILQERIPWVPPECIENPKNLNLATDKWSFGTTLWEICSGGDKPLSALDSQRKLQFYEDRHQLPAPKWAELANLINNCMDYEPDFRPSFRAIIRDLNSLFTPDYELLTENDMLPNMRIGALGFSGAFEDRDPTQFEERHLKFLQQLGKGNFGSVEMCRYDPLQDNTGEVVAVKKLQHSTEEHLRDFEREIEILKSLQHDNIVKYKGVCYSAGRRNLKLIMEYLPYGSLRDYLQKHKERIDHIKLLQYTSQICKGMEYLGTKRYIHRDLATRNILVENENRVKIGDFGLTKVLPQDKEYYKVKEPGESPIFWYAPESLTESKFSVASDVWSFGVVLYELFTYIEKSKSPPAEFMRMIGNDKQGQMIVFHLIELLKNNGRLPRPDGCPDEIYMIMTECWNNNVNQRPSFRDLALRVDQIRDNMAG	~25%
mXFP-GHR coexpressed with JAK2 V617F-mEGFP (complex) chain 1: FSGSEATAAILSRAPWSLQSVNPGLKTNSSKEPKFTKCRSPERETFSCHWTDEVHHGTKNLGPIQLFYTRRNTQEWTQEWKECPDYVSAGENSCYFNSSFTSIWIPYCIKLTSNGGTVDEKCFSVDEIVQPDPPIALNWTLLNVSLTGIHADIQVRWEAPRNADIQKGWMVLEYELQYKEVNETKWKMMDPILTTSVPVYSLKVDKEYEVRVRSKQRNSGNYGEFSEVLYVTLPQMSQFTCEEDFYFPWLLIIIFGIFGLTVMLFVFLFSKQQRIKMLILPPVPVPKIKGIDPDLLKEGKLEEVNTILAIHDSYKPEFHSDDSWVEFIELDIDEPDEKTEESDTDRLLSSDHEKSHSNLGVKDGDSGRTSCCEPDILETDFNANDIHEGTSEVAQPQRLKGEADLLCLDQKNQNNSPYHDACPATQQPSVIQAEKNKPQPLPTEGAESTHQAAHIQLSNPSSLSNIDFYAQVSDITPAGSVVLSPGQKNKAGMSQCDMHPEMVSLCQENFLMDNAYFCEADAKKCIPVAPHIKVESHIQPSLNQEDIYITTESLTTAAGRPGTGEHVPGSEMPVPDYTSIHIVQSPQGLILNATALPLPDKEFLSSCGYVSTDQLNKIMP chain 2: MGMACLTMTEMEGTSTSSIYQNGDISGNANSMKQIDPVLQVYLYHSLGKSEADYLTFPSGEYVAEEICIAASKACGITPVYHNMFALMSETERIWYPPNHVFHIDESTRHNVLYRIRFYFPRWYCSGSNRAYRHGISRGAEAPLLDDFVMSYLFAQWRHDFVHGWIKVPVTHETQEECLGMAVLDMMRIAKENDQTPLAIYNSISYKTFLPKCIRAKIQDYHILTRKRIRYRFRRFIQQFSQCKATARNLKLKYLINLETLQSAFYTEKFEVKEPGSGPSGEEIFATIIITGNGGIQWSRGKHKESETLTEQDLQLYCDFPNIIDVSIKQANQEGSNESRVVTIHKQDGKNLEIELSSLREALSFVSLIDGYYRLTADAHHYLCKEVAPPAVLENIQSNCHGPISMDFAISKLKKAGNQTGLYVLRCSPKDFNKYFLTFAVERENVIEYKHCLITKNENEEYNLSGTKKNFSSLKDLLNCYQMETVRSDNIIFQFTKCCPPKPKDKSNLLVFRTNGVSDVPTSPTLQRPTHMNQMVFHKIRNEDLIFNESLGQGTFTKIFKGVRREVGDYGQLHETEVLLKVLDKAHRNYSESFFEAASMMSKLSHKHLVLNYGVCFCGDENILVQEFVKFGSLDTYLKKNKNCINILWKLEVAKQLAWAMHFLEENTLIHGNVCAKNILLIREEDRKTGNPPFIKLSDPGISITVLPKDILQERIPWVPPECIENPKNLNLATDKWSFGTTLWEICSGGDKPLSALDSQRKLQFYEDRHQLPAPKWAELANLINNCMDYEPDFRPSFRAIIRDLNSLFTPDYELLTENDMLPNMRIGALGFSGAFEDRDPTQFEERHLKFLQQLGKGNFGSVEMCRYDPLQDNTGEVVAVKKLQHSTEEHLRDFEREIEILKSLQHDNIVKYKGVCYSAGRRNLKLIMEYLPYGSLRDYLQKHKERIDHIKLLQYTSQICKGMEYLGTKRYIHRDLATRNILVENENRVKIGDFGLTKVLPQDKEYYKVKEPGESPIFWYAPESLTESKFSVASDVWSFGVVLYELFTYIEKSKSPPAEFMRMIGNDKQGQMIVFHLIELLKNNGRLPRPDGCPDEIYMIMTECWNNNVNQRPSFRDLALRVDQIRDNMAG	~10%
